Measured values published in patent US20140322196A1 (priority 2011, published 2014).
Where two headings read alike, the source gives them in different places.

Experiments:
[1] = system: Influenza A/H1N1 (A/Roma-ISS/2/08 and A/Parma/24/09) and A/H3N2 (A/Parma/05/06); assay type: cell-based, Influenza A virus
[2] = system: all tested virus strains (Influenza A H1N1, H3N2, H5N1, H7N1)
[3] = system: A/Roma-ISS/2/08 (Brisbane-like) (oseltamivir-sensitive) H1N1; assay type: cell-based, Influenza A virus
[4] = system: A/PR/8/34 H1N1; assay type: cell-based, Influenza A virus
[5] = system: A/Solomon (3/06) inactivated subunits, vaccine H1N1; assay type: cell-based, Influenza A virus
[6] = system: A/Parma/5/06 (Wisconsin-like) H3N2; assay type: cell-based, Influenza A virus
[7] = system: A/Wisconsin (67/05) inactivated subunits, vaccine H3N2; assay type: cell-based, Influenza A virus
[8] = system: SW X-179A 1089/09 inactivated subunits, vaccine H1N1; assay type: cell-based, Influenza A virus
[9] = system: Avian 29/05/06 inactivated vaccine H5N1; assay type: cell-based, Influenza A virus; details: Avian 29/05/06 H5N1 inactivated vaccine
[10] = system: A/Turkey/Italy/2676/99 H7N1; assay type: cell-based, Influenza A virus
[11] = system: Influenza virus A/RomaISS/2/08; assay type: binding
[12] = system: HA and NA surface antigens of Solomon (H1N1) and Wisconsin (H3N2) subunit vaccines; assay type: binding, Influenza A virus

Molecule | effect on virus replication / infection (in words) [1] | inhibition of viral hemagglutination (in words) [2] | HI titre [3] | HI titre [4] | HI titre [5] | HI titre [6] | HI titre [7] | HI titre [8] | HI titre [9] | HI titre [10] | virus binding to bLf ([11]; pH 4) | virus binding to bLf ([11]; pH 5) | virus binding to bLf ([11]; pH 6) | bLf binding to viral envelope proteins (in words) [12] | substance-induced agglutination or erythrocyte lysis ([2]; turkey red blood cells, in the hemagglutination assays)
C-lobe: bovine lactoferrin C-lobe as named in the text, without saying which of the two fragments of Table 2 (protein, bovine lactoferrin C-lobe peptide) YTRVVWCAVGPEEQKKCQQWSQQSGQNVTCATASTTDDCIVLVLKGEADALNLDGGYIYTAGKCGLVPVLAENRKSSKHSSLDCVLRPTEGYLAVAVVKKANEGLTWNSLKDKKSCHTAVDRTAGWNIPMGLIVNQTGSCAFDEFFSQSCAPGADPKSRLCALCAGDDQGLDKCVPNSKEKYYGYTGAFRCLAEDVGDVAFVKNDTVWENTNGESTADWAKNLNREDFRLLCLDGTRKPVTEAQSCHLAVAPNHAVVSRSDRAAHVKQVLLHQQALFGKNGKNCPDKFCLFKSETKNLLFNDNTECLAKLGGRPTYEEYLGTEYVTAIANLKKCSTSPLLEACAFLTR | highly inhibited | marked inhibition of viral hemagglutination |  |  |  |  |  |  |  |  |  |  |  |  | 
bLf: Lactoferrin from bovine milk, purchased from Morinaga Milk Industries, deprived of endotoxin (protein, UniProt P24627 20-708, looked up) Lactotransferrin: APRKNVRWCTISQPEWFKCRRWQWRMKKLGAPSITCVRRAFALECIRAIAEKKADAVTLDGGMVFEAGRDPYKLRPVAAEIYGTKESPQTHYYAVAVVKKGSNFQLDQLQGRKSCHTGLGRSAGWIIPMGILRPYLSWTESLEPLQGAVAKFFSASCVPCIDRQAYPNLCQLCKGEGENQCACSSREPYFGYSGAFKCLQDGAGDVAFVKETTVFENLPEKADRDQYELLCLNNSRAPVDAFKECHLAQVPSHAVVARSVDGKEDLIWKLLSKAQEKFGKNKSRSFQLFGSPPGQRDLLFKDSALGFLRIPSKVDSALYLGSRYLTTLKNLRETAEEVKARYTRVVWCAVGPEEQKKCQQWSQQSGQNVTCATASTTDDCIVLVLKGEADALNLDGGYIYTAGKCGLVPVLAENRKSSKHSSLDCVLRPTEGYLAVAVVKKANEGLTWNSLKDKKSCHTAVDRTAGWNIPMGLIVNQTGSCAFDEFFSQSCAPGADPKSRLCALCAGDDQGLDKCVPNSKEKYYGYTGAFRCLAEDVGDVAFVKNDTVWENTNGESTADWAKNLNREDFRLLCLDGTRKPVTEAQSCHLAVAPNHAVVSRSDRAAHVKQVLLHQQALFGKNGKNCPDKFCLFKSETKNLLFNDNTECLAKLGGRPTYEEYLGTEYVTAIANLKKCSTSPLLEACAFLTR | markedly inhibited |  | 6 nM | 3 nM | 5 pM | 3 nM | 0.3 pM | 46.5 fM | 2.9 pM | 93.1 fM | 47.2+/−1.4% | 52.9+/−9.7% | 34.1+/−4.1% | binds to a viral protein of apparent molecular mass of 28 kDa | Neither bLf-induced agglutination nor visual evidence of erythrocyte lysis was observed
